Results published in the Human Domainome abundance scans (Beltran et al. 2025).
± gives the uncertainty stated by the source.

B1: Zinc finger homeobox protein 4, residues 2086 to 2141; numbered along this chain, Q86UP3 (parent)
chain: RPRTRITDDQLKILRAYFDINNSPSEEQIQEMAEKSGLSQKVIKHWFRNTLFKERQ

Variants of: B1
Experiment: abundance fitness (aPCA) (normalised: wild type 0, dead -1); higher = more abundant; growth selection in yeast, the domain comes from the species named
Conditions: Homo sapiens

Row | Variant | abundance fitness
1 | RPRTRITDDQLKILRAYFDINNSPSEEQIQEMAEKSGLSGKVIKHWFRNTLFKERQ [Q40G] | -0.173 ± 0.069
2 | RPRTRITDDQLKILRAYFDINNSPSEEQIQEMAEKSGLSVKVIKHWFRNTLFKERQ [Q40V] | -0.098 ± 0.074
3 | RPRTRITDDQLKILRAYFDINNSPSEEQIQEMAEKSGLSDKVIKHWFRNTLFKERQ [Q40D] | -0.232 ± 0.13
4 | RPRTRITDDQLKILRAYFDINNSPSEEQIQEMAEKSGLSWKVIKHWFRNTLFKERQ [Q40W] | -0.11 ± 0.084
5 | RPRTRITDDQLKILRAYFDINNSPSEEQIQEMAEKSGLSCKVIKHWFRNTLFKERQ [Q40C] | -0.1 ± 0.095
6 | RPRTRITDDQLKILRAYFDINNSPSEEQIQEMAEKSGLSTKVIKHWFRNTLFKERQ [Q40T] | -0.188 ± 0.11
7 | RPRTRITDDQLKILRAYFDINNSPSEEQIQEMAEKSGLSEKVIKHWFRNTLFKERQ [Q40E] | -0.253 ± 0.11
8 | RPRTRITDDQLKILRAYFDINNSPSEEQIQEMAEKSGLSMKVIKHWFRNTLFKERQ [Q40M] | 0.03 ± 0.095
9 | RPRTRITDDQLKILRAYFDINNSPSEEQIQEMAEKSGLSIKVIKHWFRNTLFKERQ [Q40I] | -0.091 ± 0.12
10 | RPRTRITDDQLKILRAYFDINNSPSEEQIQEMAEKSGLSLKVIKHWFRNTLFKERQ [Q40L] | -0.003 ± 0.071
11 | RPRTRITDDQLKILRAYFDINNSPSEEQIQEMAEKSGLSHKVIKHWFRNTLFKERQ [Q40H] | -0.172 ± 0.13
12 | RPRTRITDDQLKILRAYFDINNSPSEEQIQEMAEKSGLSQKMIKHWFRNTLFKERQ [V42M] | -0.021 ± 0.11
13 | RPRTRITDDQLKILRAYFDINNSPSEEQIQEMAEKSGLSQKLIKHWFRNTLFKERQ [V42L] | -0.085 ± 0.074
14 | RPRTRITDDQLKILRAYFDINNSPSEEQIQEMAEKSGLSQKIIKHWFRNTLFKERQ [V42I] | -0.057 ± 0.11
15 | RPRTRITDDQLKILRAYFDINNSPSEEQIQEMAEKSGLSQKDIKHWFRNTLFKERQ [V42D] | 0.093 ± 0.099
16 | RPRTRITDDQLKILRAYFDINNSPSEEQIQEMAEKSGLSQKEIKHWFRNTLFKERQ [V42E] | 0.031 ± 0.12
17 | RPRTRITDDQLKILRAYFDINNSPSEEQIQEMAEKSGLSQKSIKHWFRNTLFKERQ [V42S] | -0.059 ± 0.076
18 | RPRTRITDDQLKILRAYFDINNSPSEEQIQEMAEKSGLSQKNIKHWFRNTLFKERQ [V42N] | -0.212 ± 0.14
19 | RPRTRITDDQLKILRAYFDINNSPSEEQIQEMAEKSGLSQKQIKHWFRNTLFKERQ [V42Q] | -0.037 ± 0.11
20 | RPRTRITDDQLKILRAYFDINNSPSEEQIQEMAEKSGLSQKTIKHWFRNTLFKERQ [V42T] | -0.057 ± 0.1
21 | RPRTRITDDQLKILRAYFDINNSPSEEQIQEMAEKSGLSQKWIKHWFRNTLFKERQ [V42W] | -0.112 ± 0.095
22 | RPRTRITDDQLKILRAYFDINNSPSEEQIQEMAEKSGLSQKKIKHWFRNTLFKERQ [V42K] | -0.079 ± 0.12
23 | RPRTRITDDQLKILRAYFDINNSPSEEQIQEMAEKSGLSQKPIKHWFRNTLFKERQ [V42P] | -0.478 ± 0.11
24 | RPRTRITDDQLKILRAYFDINNSPSEEQIQEMAEKSGLSQKCIKHWFRNTLFKERQ [V42C] | -0.002 ± 0.087

Row | Variant | abundance fitness
25 | RPRTRITDDQLKILRAYFDINNSPSEEQIQEMAEKSGLSQKAIKHWFRNTLFKERQ [V42A] | 0.012 ± 0.08
26 | RPRTRITDDQLKILRAYFDINNSPSEEQIQEMAEKSGLSQKFIKHWFRNTLFKERQ [V42F] | 0.007 ± 0.1
27 | RPRTRITDDQLKILRAYFDINNSPSEEQIQEMAEKSGLSQKYIKHWFRNTLFKERQ [V42Y] | -0.065 ± 0.11
28 | RPRTRITDDQLKILRAYFDINNSPSEEQIQEMAEKSGLSQKHIKHWFRNTLFKERQ [V42H] | -0.069 ± 0.13
29 | RPRTRITDDQLKILRAYFDINNSPSEEQIQEMAEKSGLSQKGIKHWFRNTLFKERQ [V42G] | -0.077 ± 0.067
30 | RPRTRITDDQLKILRAYFDINNSPSEEQIQEMAEKSGLSQKRIKHWFRNTLFKERQ [V42R] | 0.086 ± 0.07
31 | RPRTRITDDQLKILRAYFDINNSPSEEQIQEMAEKSGLSQDVIKHWFRNTLFKERQ [K41D] | 0.183 ± 0.15
32 | RPRTRITDDQLKILRAYFDINNSPSEEQIQEMAEKSGLSQPVIKHWFRNTLFKERQ [K41P] | -0.307 ± 0.1
33 | RPRTRITDDQLKILRAYFDINNSPSEEQIQEMAEKSGLSQAVIKHWFRNTLFKERQ [K41A] | -0.136 ± 0.084
34 | RPRTRITDDQLKILRAYFDINNSPSEEQIQEMAEKSGLSQHVIKHWFRNTLFKERQ [K41H] | 0.033 ± 0.14
35 | RPRTRITDDQLKILRAYFDINNSPSEEQIQEMAEKSGLSQLVIKHWFRNTLFKERQ [K41L] | -0.174 ± 0.074
36 | RPRTRITDDQLKILRAYFDINNSPSEEQIQEMAEKSGLSQSVIKHWFRNTLFKERQ [K41S] | -0.141 ± 0.087
37 | RPRTRITDDQLKILRAYFDINNSPSEEQIQEMAEKSGLSQTVIKHWFRNTLFKERQ [K41T] | -0.093 ± 0.11
38 | RPRTRITDDQLKILRAYFDINNSPSEEQIQEMAEKSGLSQVVIKHWFRNTLFKERQ [K41V] | -0.124 ± 0.073
39 | RPRTRITDDQLKILRAYFDINNSPSEEQIQEMAEKSGLSQMVIKHWFRNTLFKERQ [K41M] | -0.146 ± 0.12
40 | RPRTRITDDQLKILRAYFDINNSPSEEQIQEMAEKSGLSQEVIKHWFRNTLFKERQ [K41E] | -0.043 ± 0.093
41 | RPRTRITDDQLKILRAYFDINNSPSEEQIQEMAEKSGLSQIVIKHWFRNTLFKERQ [K41I] | -0.106 ± 0.15
42 | RPRTRITDDQLKILRAYFDINNSPSEEQIQEMAEKSGLSQWVIKHWFRNTLFKERQ [K41W] | -0.123 ± 0.084
43 | RPRTRITDDQLKILRAYFDINNSPSEEQIQEMAEKSGLSQGVIKHWFRNTLFKERQ [K41G] | -0.042 ± 0.069
44 | RPRTRITDDQLKILRAYFDINNSPSEEQIQEMAEKSGLSQFVIKHWFRNTLFKERQ [K41F] | -0.02 ± 0.14
45 | RPRTRITDDQLKILRAYFDINNSPSEEQIQEMAEKSGLSQQVIKHWFRNTLFKERQ [K41Q] | -0.235 ± 0.12
46 | RPRTRITDDQLKILRAYFDINNSPSEEQIQEMAEKSGLSQCVIKHWFRNTLFKERQ [K41C] | 0.032 ± 0.12
47 | RPRTRITDDQLKILRAYFDINNSPSEEQIQEMAEKSGLSQNVIKHWFRNTLFKERQ [K41N] | -0.393 ± 0.25
